Legend:
Assay in all cases: direct binding assay (cell-free, plate-based luminescence); GFP-TRKB from 120 ug HEK293T lysate captured on anti-GFP coated 96-well plate; biotinylated BDNF 0.1-100 pM added for 1 h at RT in PBS; HRP-streptavidin and ECL; blank wells subtracted
GFP-TRKB.Tyr433Phe (rat) = GFP-TRKB.Tyr433Phe (rat) (UniProt Q63604)
GFP-TRKB.wt (rat) = GFP-TRKB.wt (rat) (UniProt Q63604)
GFP-TRKB/TRKA.TM (rat) = GFP-TRKB/TRKA.TM (rat) (UniProt Q63604)

Kd (GFP-TRKB.Tyr433Phe (rat)): 0.438 pM
Kd (GFP-TRKB.wt (rat)): 0.39 pM
Kd (GFP-TRKB/TRKA.TM (rat)): 0.387 pM
Substance: biotinylated BDNF (brain-derived neurotrophic factor) (ligand)
